Data from patent US20220356229A1 (published 2022).
Numbering of substitutions follows the chain as printed.

B1: anti-SARS-CoV-2 antibody 1135 (antibody, V domains shown)
VH: EVQLVESGGGLVQPGRSLRLSCAASGLTFEDYAMHWVRQVPGKGLEWVSGISWNSGTIGYADSVKGRFIISRDNAKNSLYLQMRSLRAEDTALYYCAKDVGFGELLYYAFDIWGQGTMVTVSS
VL: QSALTQPASVSGSPGQSITISCTGTSSDVGGYNYVSWYQQHPGKAPKLMIYDVSNRPSGVSNRFSGSKSGNTASLTISGLQAEDEADYYCSSYTSSSTVVFGGGTKLTVLG
B2: anti-SARS-CoV-2 antibody 1139 (antibody, V domains shown)
VH: QVQLVQSGAEVKKPGASVKVSCKASGYTFSSYEINWVRQATGQGLEWMGRMTLNSGNTGYAQNFQGRVTMTRDTSISTAYMELSGLRSEDTAVYYCARMRSGWPTHGRPDDYWGQGTLVTVSS
VL: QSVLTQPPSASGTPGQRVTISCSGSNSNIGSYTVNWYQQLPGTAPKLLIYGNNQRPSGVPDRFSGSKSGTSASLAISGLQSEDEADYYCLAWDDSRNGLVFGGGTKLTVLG
B3: anti-SARS-CoV-2 antibody 936 (antibody, V domains shown)
VH: EVQLVESGGGLVQPGRSLTLSCAGSGFTFDDYAMHWVRQAPGKGLEWVSGISWNSGSIGYADSVKGRFTISRDNAKNSLYLQMNSLRAEDTALYYCAKDVSYDSSGYYNNAFDIWGQGTMVTVSS
VL: DIQLTQSPSFLSASVGDRVTITCRASQGISSYLAWYQQKPGKAPKLLIYAASTLQSGVPSRFSGSGSGTEFTLTISSLQPEDFATYYCQQLYSYPVTFGQGTRLEIKR
B4: anti-SARS-CoV-2 antibody 1036 (antibody, V domains shown)
VH: QVQLVQSGAEVKKPGSSVKVSCKASGGTLSSYTISWVRQAPGQGLEWMGRIIPILGIADYAQKFQGRVTITADKSTTTAYMDLSSLGSEDTALYYCASAPKDWSSGFDYYYGMDVWGQGTMVTVSS
VL: DIVMTQTPLSLSVTPGQPASISCKSSQSLLNSDGKTYLYWYLQKAGQPPQLLIYEVSNRFSGVPERFSGSGSGTDFTLKISRVEAEDVGVYYCMQSVQLPPYTFGQGTKLEITR
B5: anti-SARS-CoV-2 antibody 1149 (antibody, V domains shown)
VH: QVQLVQSGAEVKKPGASVKVSCKASGYTFASYDINWVRQATGQGPEWMGWMIPNIGNTGYAQKFQGRVTMTRNTSISTAYMELSSLTSEDTAVYYCARVSRLFNDFGLRHEAPVDFWGQGTRVTVSS
VL: QSVLTQPPSVSGAPGQRVTISCTGSSSNIGAGYDVHWYQQLPGTAPKLLIYGYSSRPSGVPDRFSGSKSGTSASLAITGLQAEDEADYYCQSYDSSLSVLFGGGTKLTVLG
B6: antibody 331 (antibody, V domains shown)
V domain 1: QITLKESGPTLVKPTETLTLTCSFSGFSLTKTGEAAGWIRQAPGRALEWVTVIFWDDDKRYSPSLQNRISVTKDTSKNQVVLRMTNVARFDTGTYFCWAMGGPGKEYFGQGTLVAVSS
V domain 2: QSVLTQPPSVSGAPGQRVTISCTGTSSSIGPYSDVHWYQHVSGKAPRLLIFGNSNRPSGVPDRFSGSKSGTSASLVIAGLQAEDEADYYCQSYDSSLGEIYVFGTGTTVTVL
B7: antibody 339 (antibody, V domains shown)
V domain 1: B6 V domain 1 with K31R, N67S, I69L, S70T, R83T, G93A, L113Q
V domain 2: B6 V domain 2
B8: antibody 328 (antibody, V domains shown)
VH: QVQLQESGPGLVKPSGTLSLTCAVSGGSISSSNWWSWVRQPPGKGLEWIGEIYHSGSTNYNPSLKSRVTISVDNSKNQFSLKLSSVTAADTAVYYCARESVAAAGISYYYYGMDVWGQGTTVTVSS
VL: DIQMTQSPSSLSASVGDRVTITCRASQGIRNDLGWYQQKPGKAPKRLIYAASSLQSGVPSRFSGSGSGTEFTLTVSGLQPEDFATYYCLQYNSSPLTFGGGTKVEIK
B9: antibody 326 (antibody, V domains shown)
VH: QITLKESGPTLVKPTQTLTLTCTFSGFSLNTSGVGVGWIRQPPGKALEWLSLIFWNDDKRYSPSLRSRLTITKDTSKNQVVLTMTNMDPVDTATYFCAHRNSGWSLKFDSWGQGSLVTVSA
VL: DIQMTQSPSSVSASVGDRVTITCRARQGISSWLVWYQQKPGKAPKLLIFGASSLQSGVPSRFNASGTGTEFTLTISSLQPEDFATYYCQQADSFPITFGQGTRLEIK
B10: antibody 333 (antibody, V domains shown)
VH: QVHLVESGGGVVLPGRSLRLSCSASQFIFSNYDMHWVRQSPGMGLEWVAGISSDGSDKYYIDSVRGRFTISRDNAKNTLFLQMNSLTTEDTAVYSCAKGGGKFGQYWGRGTLVTVSS
VL: AIQMTQSPSSLSASVGDRVTITCRASQVIRNDLAWFQQKPGEAPNLLVYSASNLQSGVPSRFSGSGSGTDFTLTISSLQPEDFATYYCLQDYSYPYTFGQGTKLDMK
B11: antibody 329 (antibody, V domains shown)
VH: EVQLVESGGGLVQPGGSLRLSCAASGFTFSSYWMHWVRQAPGKGLVWVSRINSDGSSTSYADSVKGRFTISRDNAKNTLYLQMNSLRAEDTAVYYCAREGIVATITLDYWGQGTLVTVSS
VL: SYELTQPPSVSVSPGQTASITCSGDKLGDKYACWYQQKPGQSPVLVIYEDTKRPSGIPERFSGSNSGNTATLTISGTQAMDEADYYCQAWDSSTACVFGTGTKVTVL
B12: antibody 343 (antibody, V domains shown)
VH: QVQLVESGGDVVQPGTSLRLSCAASGFTFNNYGFHWVRQAPGKGLEWVALISSDGASTHYADSVKGRFTISRDSSVNTLYLQMNSLSLEDTAVYYCATGHCGTTCYYFDYWGQGTLVSVSS
VL: DIQVTQSPSYLSASVGDRVTITCRASQTISTFLQWYQQKVGKAPKLLIYAASTLQSGVPSRFSGSGSGTDFSLTISSLQPEDFATYYCQQSYSAPLSFGGGTKVEIK
B13: antibody 340 (antibody, V domains shown)
VH: QVQLVQSGAEVKKPGASVKVSCKASGYTFTSYDINWVRQATGQGLEWMGWMNPNSGNTGYAQKFQGRVTMTRNTSISTAYMELSSLRSEDTAVYYCARGRYCTGGVCWGDWYFDLWGRGTLVTVSS
VL: QSVLTQPPSVSGAPGQRVTISCTGSSSNIGAGYDVHWYQQLPGTAPKFLIYGNSNRPSGVPDRFSGSKSGTSASLAITGLQAEDEADYYCQSYDSSLSGPVFGGGTKLTVL
B14: antibody 327 (antibody, V domains shown)
VH: QVQLVESGGGVVQPGRSLRLSCAASGFNLSNYAMHWVRQASGKGLEWVSLISYDGSIKYYTDSVKGRFTVSGDNSKNTLFLQMNSLRPDDSALYYCVRGGVSGPNSFDMWGQGTTVTVSS
VL: DVVMTQSPLSLPVTLGQPASISCRSSQSLVYSDGNTYVNWFQQRPGQSPRRLIYQVSIRASGVPDRFSGSGSGTDFALKISRVEAEDVGIYYCMQGTHWPVTFGQGTKVEIK
B15: antibody 363 (antibody, V domains shown)
VH: EVQLLESGGGLVQPGGSLRLSCAASGFTFSTYAMSWVRQAPGKGLEWVSAISGSGGSTYYADSVKGRFTISRDNSKNTLYLQMNSLRAEDTAVYYCASGYSPDYWGQGTLVTVSS
VL: not shown
B16: antibody 345 (antibody, V domains shown)
VH: QVQLQESGPGLVKPSQTLSLTCTVSGGSISSGDYYWSWIRQPPGKGLEWIGYIYYSGSTYYNPSLKSRVTISVDTSKNQFSLKLSSVTAADTAVYYCARVGMVDNWNFEGNWFDPWGQGTLVTVSS
VL: QSALTQPRSVSGSPGQSVTISCTGTSSDVGGYNYVSWYQQHPGKAPKLMIYDVSKRPSGVPDRFSGSKSGNTASLTISGLQAEDEADYYCCSYAGSVVFGGGTKLTVL
B17: antibody 332 (antibody, V domains shown)
VH: QVTLRESGPALVKPTQTLTLTCTFSGFSLSTSGMCVSWIRQPPGKALEWLALIDWDDDKYYSTSLKTRLTISKDTSKNQVVLTMTNMDPVDTATYYCARIHDDILTGYHYVDYWGQGTLVTVSS
VL: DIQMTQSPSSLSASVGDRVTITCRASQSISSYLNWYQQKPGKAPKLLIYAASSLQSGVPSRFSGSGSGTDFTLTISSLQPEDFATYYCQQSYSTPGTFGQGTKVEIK
B18: antibody 344 (antibody, V domains shown)
VH: QVQLVESGGGVVQPGRSLRLSCAASGFTFSSYAMHWVRQAPGKGLEWMAVISYDGSNKYYADSVKGRFTISRDNSKNTLYLQMNSLRAEDTAVYFCAKGYSGSYYEPFDYWGQGTLVTVSS
VL: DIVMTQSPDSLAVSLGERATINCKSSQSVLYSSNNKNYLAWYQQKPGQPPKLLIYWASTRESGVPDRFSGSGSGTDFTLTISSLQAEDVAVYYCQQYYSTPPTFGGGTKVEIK
B19: antibody 348 (antibody, V domains shown)
VH: QVQLVQSGSELKKPGASVKVSCKASGYTFTSYAMNWVRQAPGQGLEWMGWINTNTGNPTYAQGFTGRFVFSLDTSVSTAYLQISSLKAEDTAVYYCARDHELPNTSSWFGHFEYWGQGTLVTVSS
VL: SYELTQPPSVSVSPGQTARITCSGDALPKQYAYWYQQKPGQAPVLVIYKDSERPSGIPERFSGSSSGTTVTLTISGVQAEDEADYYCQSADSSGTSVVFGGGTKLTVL

Target: SARS-CoV-2 full length Spike protein, wild type, expressed on CHO cells (SARS-CoV-2, UniProt P0DTC2 14-1273)

Row | Binder | median fluorescence intensity, fold over isotype control
1 | B1 | 10.9 fold over isotype
2 | B2 | 20.3 fold over isotype
3 | B3 | 33.1 fold over isotype
4 | B4 | 10.2 fold over isotype
5 | B5 | 19.2 fold over isotype

Target: SARS-CoV-2 full length Spike protein, wild type (SARS-CoV-2, UniProt P0DTC2 14-1208)

Row | Binder | bead binding signal (fold over isotype)
6 | B6 | 850 fold over isotype
7 | B7 | 874 fold over isotype
8 | B8 | 1.2 fold over isotype
9 | B9 | 193 fold over isotype
10 | B10 | 1.08 fold over isotype
11 | B11 | 497 fold over isotype
12 | B12 | 1.2 fold over isotype
13 | B13 | 547 fold over isotype
14 | B14 | 413 fold over isotype
15 | B15 | 1030 fold over isotype
16 | B16 | 562 fold over isotype
17 | B17 | 1.22 fold over isotype
18 | B18 | 404 fold over isotype
19 | B19 | 869 fold over isotype
